Reference: patent publication US20230321209A1

Molecular target: human Adenovirus capsid
Assay: SPR, peptide on adenovirus capsid (FIGS. 13A-13B)

With KKKKKKKRAKVTSAMQTMLFTMLRKL [R1A_KRAKV SARS-CoV2 peptide with 6K poly-lysine tail] as the binder, how does the list of priority (rank by SPR binding, high binders listed first) read?
Its list of priority (rank by SPR binding, high binders listed first) is 5 rank.
